{"source": "paper PMC6900781", "key": {"[1]": {"target": "CAL1-GFP-LacI [Drosophila melanogaster]", "test": "LacO-tethering recruitment assay (HA immunofluorescence intensity at LacO)", "conditions": "parent: 0.18; read off a plot"}, "[2]": {"target": "GFP-LacI-dCENP-C [Drosophila melanogaster]", "test": "LacO-tethering recruitment assay (HA immunofluorescence intensity at LacO)", "conditions": "parent: 1.2; read off a plot"}}}
{"substance": "HA-dCENP-C mutant L1357E; L1406E [Drosophila melanogaster] / CAL1-GFP-LacI [Drosophila melanogaster] chain 1 L1357E, chain 1 L1406E", "values": [{"measurement": "response (normalized to GFP)", "setting": "[1]", "value": 0.07}]}
{"substance": "HA-dCENP-C mutant L1357E; L1406E [Drosophila melanogaster] / GFP-LacI-dCENP-C [Drosophila melanogaster] chain 1 L1357E, chain 1 L1406E", "values": [{"measurement": "response (normalized to GFP)", "setting": "[2]", "value": 0.15}]}
